# Results reported in PMC2779587, “Domain Requirements and Sequence Specificity of DNA Binding for the Forkhead Transcription Factor FOXP3”.
# T1: FOXP3 FKH domain (UniProt Q9BZS1 337-423)
# T1 sequence: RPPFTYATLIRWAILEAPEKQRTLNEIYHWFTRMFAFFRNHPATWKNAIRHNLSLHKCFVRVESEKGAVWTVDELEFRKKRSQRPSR
# B1: A (A1-A2) (dsDNA)
# DNA 1: CAAGGTAAACAAGACAACACAAATAA
# DNA 2: TTATTTGTGTTGTCTTGTTTACCTTG
# B2: A' (AT) (dsDNA)
# DNA 1: CAAGATAAACAAGACAACATAAACAA
# DNA 2: TTGTTTATGTTGTCTTGTTTATCTTG
# B3: A' (A1-A1) (dsDNA)
# DNA 1: CAAGGTAAACAAGACAACGTAAACAA
# DNA 2: TTGTTTACGTTGTCTTGTTTACCTTG
# B4: A' (35 bp), 20-bp spacing (dsDNA)
# DNA 1: CAAGGTAAACAAGACAACACGATTGTAAACAAGTC
# DNA 2: GACTTGTTTACAATCGTGTTGTCTTGTTTACCTTG
# B5: A' (GC) (dsDNA)
# DNA 1: CAAGGCAAACAAGACAACGCAAACAA
# DNA 2: TTGTTTGCGTTGTCTTGTTTGCCTTG
# B6: A'' (A2-A2) (dsDNA)
# DNA 1: CAAGACAAATAAGACAACACAAATAA
# DNA 2: TTATTTGTGTTGTCTTATTTGTCTTG
# B7: A' (25 bp), 10-bp spacing (dsDNA)
# DNA 1: CAAGGTAAACAAGAGTAAACAAGTC
# DNA 2: GACTTGTTTACTCTTGTTTACCTTG
# Tests used:
# FOXP3 FKH domain = molecular target: T1, FOXP3 FKH domain; assay: EMSA; 12 mM HEPES pH 7.5, 100 mM NaCl, 1 mM DTT, 1 mM EDTA, 12% glycerol, 20 µg/ml poly(dI)-poly(dC), room temperature 20 min; settings: chain copies: 2; label: 32P 5' end; blunt
# Foxp1A full length = Foxp1A full length (mouse, UniProt P58462 1-705); assay: as above; settings: protein: ivt; tags: HA; chain copies: 2; label: 32P 5' end; blunt
# Foxp1A full length, sequence (P58462 whole entry): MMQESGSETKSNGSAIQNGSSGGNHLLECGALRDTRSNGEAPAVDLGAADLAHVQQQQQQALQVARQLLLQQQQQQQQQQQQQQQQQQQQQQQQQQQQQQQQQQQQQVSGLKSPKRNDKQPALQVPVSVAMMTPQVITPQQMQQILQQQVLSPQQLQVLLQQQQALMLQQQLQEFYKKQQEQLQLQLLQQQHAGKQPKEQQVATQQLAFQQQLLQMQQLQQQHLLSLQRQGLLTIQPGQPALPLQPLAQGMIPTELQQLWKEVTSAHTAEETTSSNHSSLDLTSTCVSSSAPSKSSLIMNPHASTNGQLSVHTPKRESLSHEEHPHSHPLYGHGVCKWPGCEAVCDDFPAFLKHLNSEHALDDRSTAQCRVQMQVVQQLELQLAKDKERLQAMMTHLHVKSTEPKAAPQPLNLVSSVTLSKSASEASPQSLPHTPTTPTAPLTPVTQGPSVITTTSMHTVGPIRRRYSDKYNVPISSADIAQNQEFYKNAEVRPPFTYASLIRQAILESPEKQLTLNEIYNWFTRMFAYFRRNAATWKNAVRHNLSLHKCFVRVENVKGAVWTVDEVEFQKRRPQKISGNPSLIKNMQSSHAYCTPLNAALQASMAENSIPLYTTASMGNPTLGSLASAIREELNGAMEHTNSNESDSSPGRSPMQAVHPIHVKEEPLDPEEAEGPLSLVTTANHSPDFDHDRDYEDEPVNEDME
# FOXP3 full length = FOXP3 full length (human, UniProt Q9BZS1 1-431); assay: as above; settings: protein: ivt; chain copies: 2; label: 32P 5' end; blunt
# FOXP3 full length, sequence (Q9BZS1 whole entry): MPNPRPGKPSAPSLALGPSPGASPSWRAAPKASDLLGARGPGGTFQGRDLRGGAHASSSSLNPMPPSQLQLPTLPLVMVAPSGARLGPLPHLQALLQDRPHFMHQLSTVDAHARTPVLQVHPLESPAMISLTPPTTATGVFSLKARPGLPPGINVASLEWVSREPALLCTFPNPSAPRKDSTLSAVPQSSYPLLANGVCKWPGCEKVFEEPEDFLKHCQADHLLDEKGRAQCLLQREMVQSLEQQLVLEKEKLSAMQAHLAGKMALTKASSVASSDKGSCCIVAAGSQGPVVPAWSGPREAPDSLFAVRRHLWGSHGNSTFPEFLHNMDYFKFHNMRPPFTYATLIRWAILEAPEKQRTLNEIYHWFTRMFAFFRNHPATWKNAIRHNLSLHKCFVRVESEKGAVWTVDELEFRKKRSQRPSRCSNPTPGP
# FOXP3-ΔN [1] = molecular target: T2, FOXP3-ΔN (human, UniProt Q9BZS1 182-431); assay: as above; settings: protein: ivt; chain copies: 2; label: 32P 5' end; blunt
# T2 sequence (Q9BZS1 182-431, stated change not applied): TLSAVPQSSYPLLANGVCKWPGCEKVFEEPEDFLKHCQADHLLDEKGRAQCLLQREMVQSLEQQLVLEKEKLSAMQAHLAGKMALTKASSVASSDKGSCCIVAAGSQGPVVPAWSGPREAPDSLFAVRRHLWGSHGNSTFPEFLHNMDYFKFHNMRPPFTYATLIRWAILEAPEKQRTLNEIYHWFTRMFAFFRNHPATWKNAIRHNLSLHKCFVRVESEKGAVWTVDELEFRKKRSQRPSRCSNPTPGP
# FOXP3-ΔN ΔFKH = FOXP3-ΔN ΔFKH (human, UniProt Q9BZS1 182-336); assay: as above; settings: protein: ivt; label: 32P 5' end; blunt
# FOXP3-ΔN ΔFKH, sequence (Q9BZS1 182-336, stated change not applied): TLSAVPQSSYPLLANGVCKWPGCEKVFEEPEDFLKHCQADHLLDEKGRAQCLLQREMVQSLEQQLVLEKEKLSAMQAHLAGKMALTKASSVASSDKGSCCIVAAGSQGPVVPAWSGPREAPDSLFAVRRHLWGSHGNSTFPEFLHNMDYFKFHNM
# FOXP3-ΔN delK250 = FOXP3-ΔN delK250 (human, UniProt Q9BZS1 182-431, del250-250); assay: as above; settings: protein: ivt; chain copies: 2; label: 32P 5' end; blunt
# FOXP3-ΔN delK250, sequence (Q9BZS1 other isoform, or with tags, fused parts or gaps del250-250 | mutant): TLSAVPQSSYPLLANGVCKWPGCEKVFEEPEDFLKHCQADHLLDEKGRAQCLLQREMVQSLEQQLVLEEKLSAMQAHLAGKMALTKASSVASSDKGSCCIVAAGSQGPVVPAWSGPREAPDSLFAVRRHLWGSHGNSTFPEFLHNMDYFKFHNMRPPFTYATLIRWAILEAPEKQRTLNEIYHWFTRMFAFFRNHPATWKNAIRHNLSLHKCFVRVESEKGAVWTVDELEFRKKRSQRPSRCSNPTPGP
# FOXP3-ΔN delE251 = FOXP3-ΔN delE251 (human, UniProt Q9BZS1 182-431, del251-251); assay: as above; settings: protein: ivt; chain copies: 2; label: 32P 5' end; blunt
# FOXP3-ΔN delE251, sequence (Q9BZS1 other isoform, or with tags, fused parts or gaps del251-251 | mutant): as the sequence (Q9BZS1 other isoform, or with tags, fused parts or gaps del250-250 | mutant) above, with E69K counted along it
# FOXP3-ΔN C204S = FOXP3-ΔN C204S (human, UniProt Q9BZS1 182-431, C204S); assay: EMSA; not influenced by mutation; 12 mM HEPES pH 7.5, 100 mM NaCl, 1 mM DTT, 1 mM EDTA, 12% glycerol, 20 µg/ml poly(dI)-poly(dC), room temperature 20 min; settings: protein: ivt; chain copies: 2; label: 32P 5' end; blunt
# FOXP3-ΔN C204S, sequence (Q9BZS1 182-431 C204S): as the sequence (Q9BZS1 182-431, stated change not applied) above, with C23S counted along it
# FOXP3-ΔN [2] = molecular target: T2, FOXP3-ΔN; assay: EMSA; binding more than doubled; 12 mM HEPES pH 7.5, 100 mM NaCl, 1 mM DTT, 1 mM EDTA, 12% glycerol, 20 µg/ml poly(dI)-poly(dC), room temperature 20 min; settings: protein: ivt; chain copies: 2; label: 32P 5' end; blunt
# FOXP3-ΔN [3] = molecular target: T2, FOXP3-ΔN; assay: EMSA; 12 mM HEPES pH 7.5, 100 mM NaCl, 1 mM DTT, 1 mM EDTA, 12% glycerol, 20 µg/ml poly(dI)-poly(dC), room temperature 20 min; settings: protein: ivt; chain copies: 2; label: 32P 5' end; blunt; remark: listed apart in the source
# FOXP3-ΔN [4] = molecular target: T2, FOXP3-ΔN; assay: as above; settings: protein: ivt; chain copies: 2; label: 32P 5' end; blunt; remark: listed apart in the source
binder,measurement,setting,value
B1,binding result,FOXP3 FKH domain,no binding
same,binding result,Foxp1A full length,binds
same,binding result,FOXP3 full length,no binding
B2,binding signal,FOXP3-ΔN [1],< 0.5 fold versus A' (GT)
B3,binding result,FOXP3-ΔN ΔFKH,no binding
same,binding result,FOXP3 full length,no binding
same,binding result,FOXP3-ΔN delK250,no binding
same,binding result,FOXP3-ΔN delE251,no binding
same,binding result,FOXP3-ΔN C204S,binds
same,binding signal,FOXP3-ΔN [2],> 2 fold versus A probe
B4,binding signal,FOXP3-ΔN [3],~3 fold versus 14-bp spacing
B5,binding result,FOXP3-ΔN [4],no binding
B6,binding result,FOXP3 full length,no binding
same,binding result,FOXP3-ΔN [4],no binding
B7,binding signal,FOXP3-ΔN [3],~3 fold versus 14-bp spacing
